Assay results reported in FireProtDB (doi:10.1016/0168-1656(93)90129-b).

B1: Ribonuclease HI, P0A7Y4 (parent)
chain: MLKQVEIFTDGSCLGNPGPGGYGAILRYRGREKTFSAGYTRTTNNRMELMAAIVALEALKEHCEVILSTDSQYVRQGITQWIHNWKKRGWKTADKKPVKNVDLWQRLDAALGQHQIKWEWVKGHAGHPENERCDELARAAAMNPTLEDTGYQVEV

Variants of: B1
Details: Escherichia coli (strain K12), CD, reversible: yes, structure 2RN2, whole UniProt chain shown; for Tm / change of melting temperature, mutant - wild type (higher = more stable): Thermal; for ddG of mutation (higher = less stable) / denaturant midpoint (higher = more stable) / unfolding free energy: 25 °C, GdnHCl

Variant | Tm (pH 3, glycine-HCl 10 mM) [°C] | change of melting temperature, mutant - wild type (higher = more stable) (pH 3, glycine-HCl 10 mM) [°C] | ddG of mutation (higher = less stable) (pH 5.5, Sodium acetate 20 mM) [kJ/mol] | denaturant midpoint (higher = more stable) (pH 5.5, Sodium acetate 20 mM) [M] | unfolding free energy (pH 5.5, Sodium acetate 20 mM) [kJ/mol] | ddG of mutation (higher = less stable) (pH 8.2, Tris-HCl 20 mM) [kJ/mol] | denaturant midpoint (higher = more stable) (pH 8.2, Tris-HCl 20 mM) [M] | unfolding free energy (pH 8.2, Tris-HCl 20 mM) [kJ/mol] | Tm (pH 5.5, Sodium acetate 20 mM) [°C] | change of melting temperature, mutant - wild type (higher = more stable) (pH 5.5, Sodium acetate 20 mM) [°C] | Tm (pH 7.8, Sodium phosphate 20 mM) [°C] | change of melting temperature, mutant - wild type (higher = more stable) (pH 7.8, Sodium phosphate 20 mM) [°C]
H127A | 50.3 | 0.9 | 1 | 1.74 | 37.5 | 1.3 | 1.59 | 34.2 |  |  |  | 
H124A H127A | 53 | 3.6 |  |  |  |  |  |  | 52.1 | -0.6 | 50.1 | -0.1
H62A H83A H124A H127A | 54.9 | 5.5 |  |  |  |  |  |  |  |  | 51.7 | 1.5
H114A |  |  |  |  |  |  |  |  |  |  | 42.5 | -7.7
H124A | 51.1 | 1.7 | -0.711 | 1.82 | 39.2 | -0.209 | 1.66 | 35.7 | 52.7 | 0 | 50.3 | 0.1
H62A H83A |  |  |  |  |  |  |  |  |  |  | 51.5 | 1.3
H83A | 51.5 | 2.1 | -0.92 | 1.83 | 39.5 | 0.377 | 1.63 | 35.1 | 52.8 | 0.1 | 50 | -0.2
H62A | 50.7 | 1.3 | -1.51 | 1.86 | 40 | -2.43 | 1.76 | 37.9 |  |  | 51.2 | 1
